Reference: US20250163449A1, “HERBICIDE-TOLERANT GENES AND METHOD FOR USING SAME” (QINGDAO KINGAGROOT CHEMICAL COMPOUND CO., LTD., priority 2022, published 2025)

Legend:
rice (Jinjing 818) [1] = assay: Transgenic rice seedlings, compound B added to medium at rooting phase; format: in vivo; conditions: at least 1 μM compound B in medium (0.5 and 1 μM for SEQ ID NO: 42), 17-26 days
Procedure: Plant transformation vectors were constructed, each comprising a recombinant DNA molecule encoding an engineered protein (SEQ ID NO: 42/38/82/86/102/106/126/138/142) with the protein-coding sequence optimized for monocot expression, and rice (Jinjing 818) calli were transformed with these vectors using Agrobacterium tumifaciens and standard methods known in the art. Different concentrations of hormone herbicide compound B were added at the rooting phase of the rice seedlings to test hormone resistance, wherein, the test results of control Jinjing 818 plants and transgenic Jinjing 818 plants comprising the protein-coding gene of SEQ ID NO: 42 after adding 0.5 μM and 1 μM compound B to medium for 19 days are shown in FIG. 1. The test results of control Jinjing 818 plants and transgenic Jinjing 818 plants comprising the protein-coding genes of SEQ ID NO: 38/82/86/102/106/126/138/142 after adding 1 μM compound B to medium are shown in FIG. 5-11.

[2] = Conversion rate of substrate compound A by E. coli expressing each engineered protein (HPLC, oxygenase activity); format: biochemical
Source text: The high-throughput bacterial protein expression was achieved by cloning the synthesized gene that encodes each engineered protein into a bacterial expression vector with a C-terminal histidine tag (His-tag). The vectors were transformed into Escherichia coli (E. coli), and expression of the engineered proteins was induced. E. coli cultures were selected and cultured in centrifuge tubes overnight, meanwhile, added with substrates and IPTG, and the cultures were centrifuged to pellet the bacteria the next day. Alternatively, E. coli cultures were selected and cultured in centrifuge tubes overnight, and centrifuged to pellet the bacteria after adding substrates for reaction the next day. The supernatant of reaction solution was pipetted into a 96-well plate and the absorbance at 510 nm from 4-aminoantipyrine and potassium ferricyanide was measured by an endpoint colorimetric method to detect phenol products. Substrate reduction and product yield were measured by high performance liquid chromatography (HPLC) to detect the oxygenase activity (i.e., enzymatic activity) of the engineered proteins, and the activities of the proteins were compared by calculating conversion rates.
Conversion rate=(Peak area of initial substrate−Peak area of substrate after reaction)/Peak area of initial substrate*100%

Arabidopsis thaliana = assay: T2 transgenic Arabidopsis thaliana seeds screened on compound A medium; format: in vivo; conditions: 0.15 μM compound A in medium, 11-24 days
Source text: Engineered proteins were selected for Arabidopsis thaliana transformation and plant analysis. DNA constructs were transformed into Arabidopsis thaliana using Agrobacterium tumifaciens and standard methods known in the art.
The transformed TO transgenic plantlets grew in the greenhouse. T1 generation Arabidopsis thaliana plant seeds produced by transformation of all constructs were collected after approximately 60 days of growth. Transgenic T1 generation Arabidopsis thaliana plants were screened by adding HYG to medium for T1 generation. T1 plants were selfed to produce seeds of T2 generation Arabidopsis thaliana plants. Wherein, compound A was added to medium to screen and test T2 generation Arabidopsis thaliana plant seeds, that were produced by all constructs, comprising unique events screened by T1 generation.

rice (Jinjing 818) [3] = assay: Transgenic rice T0 plantlets in greenhouse sprayed with compound B; format: in vivo; conditions: medicated medium test and greenhouse spraying test for T0 generation, compound B
Procedure: Then, the obtained regenerated TO generation transgenic plantlets grew in the greenhouse, and were sprayed with compound B at the growth stage when approximately two leaves unfolded and the third one just appearing. Resistance levels of plants were recorded and evaluated after spraying treatment, wherein, the test results of control Jinjing 818 plants and transgenic Jinjing 818 plants comprising the protein-coding gene of SEQ ID NO: 42 after applying 20 g, 40 g, 60 g, 80 g, 100 g, 120 g/mu (1 mu=1/15 ha) compound B for corresponding days (DAT) are shown in FIG. 2.

[4] = Enzymatic kinetic measurements of purified proteins with compound A as substrate; format: biochemical; conditions: purified protein, compound A 0-1000 μM as substrate
Procedure: Based on the results of HPLC, representative engineered proteins were selected for protein purification. Further protein characterization, such as Km, Vmax and Kcat, was performed on the 8 engineered proteins from Table 2. Conventional Ni column affinity chromatography was used for protein purification and protein extract purity was assessed by SDS-PAGE analysis. After determining protein concentration by BCA method, enzyme activity was determined.

maize = assay: T0 transgenic maize plantlets sprayed with 30% glyphosate compound C (25+5) ME; format: in vivo
Procedure: Engineered proteins were selected for maize transformation and plant analysis. DNA constructs were transformed into maizes using Agrobacterium tumifaciens and standard methods known in the art.
The transformed TO transgenic plantlets grew in the greenhouse. TO generation transgenic plantlets were tested by spraying with 150 g, 250 g, 400 g, 600 g, 800 g of 30% glyphosate compound C (25+5) ME.

rice (Jinjing 818) [5] = assay: Transgenic rice T0 plantlets in greenhouse sprayed with quizalofop-P-ethyl; format: in vivo; conditions: T0 plantlets foliage-sprayed with 5 g, 10 g/mu quizalofop-P-ethyl, 20 DAT
Procedure: The obtained regenerated TO generation transgenic plantlets grew in the greenhouse, and were sprayed with compound quizalofop-P-ethyl at the growth stage when approximately two leaves unfolded and the third one just appearing. Resistance levels of plants were recorded and evaluated after spraying treatment, wherein, the test results of control Jinjing 818 plants and transgenic Jinjing 818 plants comprising the protein-coding gene of SEQ ID NO: 46 after applying 0 g, 5 g, 10 g/mu compound quizalofop-P-ethyl for 20 DAT are shown in FIG. 12.

soybean = assay: Transgenic soybeans sprayed with compound C; format: in vivo; conditions: 10 g compound C sprayed
Procedure: Engineered proteins were selected for soybean transformation and plant analysis. DNA constructs were transformed into soybeans using Agrobacterium tumifaciens and standard methods known in the art.
The transformed TO transgenic plantlets grew in the greenhouse. TO generation transgenic plantlets were tested by spraying 10 g compound C. […] T1 generation soybean plant seeds produced by transformation of all constructs were collected, and T1 generation seedlings were tested by spraying 10 g compound C.

[6] = Reaction condition 2: bacteria cultured overnight, 8 times dose of substrate compound A of condition 1 added, react 3 hours the next day

B1: SEQ ID NO: 102: RdpA mutant L82H + V187L + F182W + G103L + T112A (protein)
chain: MHAALSPLSQRFERIAVQPLTGVLGAEITGVDLREPLDDSTWNEILDAFHTYQVIYFPGQAITNEQHIAFSRRFGPVDPVPHLKSIEGYPEVQMIRREANESLRVIGDDWHADSTFLDAPPAAVVMRAIDVPEHGGDTGFLSMYTAWETLSPTMQATIEGLNVVHSATRVFGSLYQAQNRRWSNTSLKVMDVDAGDRETVHPLVVTHPGSGRKGLYVNQVYCQRIEGMTDAESKPLLQFLYEHATRFDFTCRVRWKKDQVLVWDNLCTMHRAVPDYAGKFRYLTRTTVGGVRPAR
Rice (Jinjing 818) [1]
  drug resistance (tolerance to compound B) compared with wild-type plants: exhibited better drug resistance
[2]; [6]
  Conversion rate: 93.2%
Arabidopsis thaliana
  drug resistance compared with wild-type Arabidopsis thaliana (longer roots and larger leaves): exhibited better drug resistance
Rice (Jinjing 818) [3]
  tolerance compared with the wild types (summary): exhibited apparent tolerance

B2: SEQ ID NO: 126: RdpA mutant L82H + V187L + F182W + R104G + T112S + R180K (protein)
chain: MHAALSPLSQRFERIAVQPLTGVLGAEITGVDLREPLDDSTWNEILDAFHTYQVIYFPGQAITNEQHIAFSRRFGPVDPVPHLKSIEGYPEVQMIRREANESGGVIGDDWHSDSTFLDAPPAAVVMRAIDVPEHGGDTGFLSMYTAWETLSPTMQATIEGLNVVHSATRVFGSLYQAQNKRWSNTSLKVMDVDAGDRETVHPLVVTHPGSGRKGLYVNQVYCQRIEGMTDAESKPLLQFLYEHATRFDFTCRVRWKKDQVLVWDNLCTMHRAVPDYAGKFRYLTRTTVGGVRPAR
Rice (Jinjing 818) [1]
  drug resistance (tolerance to compound B) compared with wild-type plants: exhibited better drug resistance
[2]; [6]
  Conversion rate: 92.6%
Arabidopsis thaliana
  drug resistance compared with wild-type Arabidopsis thaliana (longer roots and larger leaves): exhibited better drug resistance
Rice (Jinjing 818) [3]
  tolerance compared with the wild types (summary): exhibited apparent tolerance

B3: SEQ ID NO: 142: RdpA mutant L82H + V187L + F182W + R104G + T112S + R180Q (protein)
chain: MHAALSPLSQRFERIAVQPLTGVLGAEITGVDLREPLDDSTWNEILDAFHTYQVIYFPGQAITNEQHIAFSRRFGPVDPVPHLKSIEGYPEVQMIRREANESGGVIGDDWHSDSTFLDAPPAAVVMRAIDVPEHGGDTGFLSMYTAWETLSPTMQATIEGLNVVHSATRVFGSLYQAQNQRWSNTSLKVMDVDAGDRETVHPLVVTHPGSGRKGLYVNQVYCQRIEGMTDAESKPLLQFLYEHATRFDFTCRVRWKKDQVLVWDNLCTMHRAVPDYAGKFRYLTRTTVGGVRPAR
Rice (Jinjing 818) [1]
  drug resistance (tolerance to compound B) compared with wild-type plants: exhibited better drug resistance
[2]; [6]
  Conversion rate: 67%
Arabidopsis thaliana
  drug resistance compared with wild-type Arabidopsis thaliana (longer roots and larger leaves): exhibited better drug resistance
Rice (Jinjing 818) [3]
  tolerance compared with the wild types (summary): exhibited apparent tolerance

B4: SEQ ID NO: 46: RdpA mutant L82H + V187L + F182W + R104G + T112S (protein)
chain: MHAALSPLSQRFERIAVQPLTGVLGAEITGVDLREPLDDSTWNEILDAFHTYQVIYFPGQAITNEQHIAFSRRFGPVDPVPHLKSIEGYPEVQMIRREANESGGVIGDDWHSDSTFLDAPPAAVVMRAIDVPEHGGDTGFLSMYTAWETLSPTMQATIEGLNVVHSATRVFGSLYQAQNRRWSNTSLKVMDVDAGDRETVHPLVVTHPGSGRKGLYVNQVYCQRIEGMTDAESKPLLQFLYEHATRFDFTCRVRWKKDQVLVWDNLCTMHRAVPDYAGKFRYLTRTTVGGVRPAR
[4]
  Kcat: 0.15 S^−1
  Km: 17.5 µM
  Vmax: 35.2
maize; 600 g 30% glyphosate compound C (25+5) ME
  drug resistance compared with the wild-type maize: better drug resistance
maize; 600 g of 30% glyphosate compound C (25+5) ME
  phytotoxicity reaction of transgenic plantlets: the stem base was slightly enlarged, the whole plant growth was obviously inhibited, and the plant was in normal condition
maize; 800 g of 30% glyphosate compound C (25+5) ME
  phytotoxicity reaction of transgenic plantlets: the stem base was significantly enlarged, inhibition on the whole plant growth was further intensified, and the leaf color became lighter and lusterless
maize; concentration below 600 g of 30% glyphosate compound C (25+5) ME
  phytotoxicity reaction of transgenic plantlets: no apparent phytotoxicity reaction
Rice (Jinjing 818) [5]
  drug resistance (tolerance to quizalofop-P-ethyl) compared with wild-type plants: exhibited better drug resistance
[2]; Reaction condition 1: bacteria cultured overnight, substrate compound A and IPTG added to react overnight
  Conversion rate: 97%
Arabidopsis thaliana
  drug resistance compared with wild-type Arabidopsis thaliana (longer roots and larger leaves): exhibited better drug resistance
soybean; T0 generation plantlets
  resistance compared with the wild-type soybean: exhibited apparent resistance
soybean; T1 generation seedlings
  resistance compared with the wild-type soybean: exhibited apparent resistance

B5: SEQ ID NO: 138: RdpA mutant L82H + V187L + F182W + G103L + R180T (protein)
chain: MHAALSPLSQRFERIAVQPLTGVLGAEITGVDLREPLDDSTWNEILDAFHTYQVIYFPGQAITNEQHIAFSRRFGPVDPVPHLKSIEGYPEVQMIRREANESLRVIGDDWHTDSTFLDAPPAAVVMRAIDVPEHGGDTGFLSMYTAWETLSPTMQATIEGLNVVHSATRVFGSLYQAQNTRWSNTSLKVMDVDAGDRETVHPLVVTHPGSGRKGLYVNQVYCQRIEGMTDAESKPLLQFLYEHATRFDFTCRVRWKKDQVLVWDNLCTMHRAVPDYAGKFRYLTRTTVGGVRPAR
Rice (Jinjing 818) [1]
  drug resistance (tolerance to compound B) compared with wild-type plants: exhibited better drug resistance
[2]; [6]
  Conversion rate: 54.6%
Arabidopsis thaliana
  drug resistance compared with wild-type Arabidopsis thaliana (longer roots and larger leaves): exhibited better drug resistance
Rice (Jinjing 818) [3]
  tolerance compared with the wild types (summary): exhibited apparent tolerance
